Biological target: T1, TIGIT (human)
T1 chain: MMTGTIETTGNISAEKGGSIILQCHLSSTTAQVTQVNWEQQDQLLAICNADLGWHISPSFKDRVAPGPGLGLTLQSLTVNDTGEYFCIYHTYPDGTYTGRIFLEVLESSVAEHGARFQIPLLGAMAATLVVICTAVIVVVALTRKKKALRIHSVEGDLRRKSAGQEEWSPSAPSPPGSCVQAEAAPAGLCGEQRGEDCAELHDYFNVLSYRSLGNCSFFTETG
Assay: cell-based or functional assay

Row | Binder | IL-2 luciferase reporter, Normalized Fold Change from CD155-ECD, proteins at 50 nM [fold]
1 | variant CD155 IgV-Fc P18T, E37G, G53R, Q62K, L79P, F91S, E98D, L104M, T107M (Fc fusion) WPPPGTGDVVVQAPTQVTGFLGDSVTLPCYLQVPNMGVTHVSQLTWARHGESRSMAVFHQTKGPSYSESKRLEFVAARPGAELRNASLRMSGLRVEDDGNYTCMFVMFPQGSRSVDIWLRVLGSGGGGSEPKSSDKTHTCPPCPAPEAEGAPSVFLFPPKPKDTLMISRTPEVTCVVVDVSHEDPEVKFNWYVDGVEVHNAKTKPREEQYNSTYRVVSVLTVLHQDWLNGKEYKCKVSNKALPAPIEKTISKAKGQPREPQVYTLPPSRDELTKNQVSLTCLVKGFYPSDIAVEWESNGQPENNYKTTPPVLDSDGSFFLYSKLTVDKSRWQQGNVFSCSVMHEALHNHYTQKSLSLSPGK | 8.6
2 | variant CD155 IgV-Fc P18C, T26M, L44V, M55I, Q62K, L79P, F91S, L104M, T107M (Fc fusion) WPPPGTGDVVVQAPTQVCGFLGDSVMLPCYLQVPNMEVTHVSQVTWARHGESGSIAVFHQTKGPSYSESKRLEFVAARPGAELRNASLRMSGLRVEDEGNYTCMFVMFPQGSRSVDIWLRVLGSGGGGSEPKSSDKTHTCPPCPAPEAEGAPSVFLFPPKPKDTLMISRTPEVTCVVVDVSHEDPEVKFNWYVDGVEVHNAKTKPREEQYNSTYRVVSVLTVLHQDWLNGKEYKCKVSNKALPAPIEKTISKAKGQPREPQVYTLPPSRDELTKNQVSLTCLVKGFYPSDIAVEWESNGQPENNYKTTPPVLDSDGSFFLYSKLTVDKSRWQQGNVFSCSVMHEALHNHYTQKSLSLSPGK | 1.6
3 | variant CD155 IgV-Fc V9I, P18T, D23G, L79P, F91S, G111R (Fc fusion) WPPPGTGDIVVQAPTQVTGFLGGSVTLPCYLQVPNMEVTHVSQLTWARHGESGSMAVFHQTQGPSYSESKRLEFVAARPGAELRNASLRMSGLRVEDEGNYTCLFVTFPQRSRSVDIWLRVLGSGGGGSEPKSSDKTHTCPPCPAPEAEGAPSVFLFPPKPKDTLMISRTPEVTCVVVDVSHEDPEVKFNWYVDGVEVHNAKTKPREEQYNSTYRVVSVLTVLHQDWLNGKEYKCKVSNKALPAPIEKTISKAKGQPREPQVYTLPPSRDELTKNQVSLTCLVKGFYPSDIAVEWESNGQPENNYKTTPPVLDSDGSFFLYSKLTVDKSRWQQGNVFSCSVMHEALHNHYTQKSLSLSPGK | 2
4 | variant CD155 IgV-Fc V9L, P18L, L79P, M90I, F91S, T102S, L104M, G111R (Fc fusion) WPPPGTGDLVVQAPTQVLGFLGDSVTLPCYLQVPNMEVTHVSQLTWARHGESGSMAVFHQTQGPSYSESKRLEFVAARPGAELRNASLRISGLRVEDEGNYSCMFVTFPQRSRSVDIWLRVLGSGGGGSEPKSSDKTHTCPPCPAPEAEGAPSVFLFPPKPKDTLMISRTPEVTCVVVDVSHEDPEVKFNWYVDGVEVHNAKTKPREEQYNSTYRVVSVLTVLHQDWLNGKEYKCKVSNKALPAPIEKTISKAKGQPREPQVYTLPPSRDELTKNQVSLTCLVKGFYPSDIAVEWESNGQPENNYKTTPPVLDSDGSFFLYSKLTVDKSRWQQGNVFSCSVMHEALHNHYTQKSLSLSPGK | 2.4
5 | variant CD155 IgV-Fc V9L, P18T, Q62R, L79P, F91S, L104M, G111R (Fc fusion) WPPPGTGDLVVQAPTQVTGFLGDSVTLPCYLQVPNMEVTHVSQLTWARHGESGSMAVFHQTRGPSYSESKRLEFVAARPGAELRNASLRMSGLRVEDEGNYTCMFVTFPQRSRSVDIWLRVLGSGGGGSEPKSSDKTHTCPPCPAPEAEGAPSVFLFPPKPKDTLMISRTPEVTCVVVDVSHEDPEVKFNWYVDGVEVHNAKTKPREEQYNSTYRVVSVLTVLHQDWLNGKEYKCKVSNKALPAPIEKTISKAKGQPREPQVYTLPPSRDELTKNQVSLTCLVKGFYPSDIAVEWESNGQPENNYKTTPPVLDSDGSFFLYSKLTVDKSRWQQGNVFSCSVMHEALHNHYTQKSLSLSPGK | 7.4
6 | variant CD155 IgV-Fc P18L, K70E, L79P, F91S, V95A, G111R (Fc fusion) WPPPGTGDVVVQAPTQVLGFLGDSVTLPCYLQVPNMEVTHVSQLTWARHGESGSMAVFHQTQGPSYSESERLEFVAARPGAELRNASLRMSGLRAEDEGNYTCLFVTFPQRSRSVDIWLRVLGSGGGGSEPKSSDKTHTCPPCPAPEAEGAPSVFLFPPKPKDTLMISRTPEVTCVVVDVSHEDPEVKFNWYVDGVEVHNAKTKPREEQYNSTYRVVSVLTVLHQDWLNGKEYKCKVSNKALPAPIEKTISKAKGQPREPQVYTLPPSRDELTKNQVSLTCLVKGFYPSDIAVEWESNGQPENNYKTTPPVLDSDGSFFLYSKLTVDKSRWQQGNVFSCSVMHEALHNHYTQKSLSLSPGK | 2.4
7 | variant CD155 IgV-Fc P18F, S65A, S67V, F91S, L104M, G111R (Fc fusion) WPPPGTGDVVVQAPTQVFGFLGDSVTLPCYLQVPNMEVTHVSQLTWARHGESGSMAVFHQTQGPAYVESKRLEFVAARLGAELRNASLRMSGLRVEDEGNYTCMFVTFPQRSRSVDIWLRVLGSGGGGSEPKSSDKTHTCPPCPAPEAEGAPSVFLFPPKPKDTLMISRTPEVTCVVVDVSHEDPEVKFNWYVDGVEVHNAKTKPREEQYNSTYRVVSVLTVLHQDWLNGKEYKCKVSNKALPAPIEKTISKAKGQPREPQVYTLPPSRDELTKNQVSLTCLVKGFYPSDIAVEWESNGQPENNYKTTPPVLDSDGSFFLYSKLTVDKSRWQQGNVFSCSVMHEALHNHYTQKSLSLSPGK | 0.6
8 | variant CD155 IgV-Fc V9I, V10I, P18S, F20S, T45A, L79P, F91S, L104M, F108Y, G111R, S112V (Fc fusion) WPPPGTGDIIVQAPTQVSGSLGDSVTLPCYLQVPNMEVTHVSQLAWARHGESGSMAVFHQTQGPSYSESKRLEFVAARPGAELRNASLRMSGLRVEDEGNYTCMFVTYPQRVRSVDIWLRVLGSGGGGSEPKSSDKTHTCPPCPAPEAEGAPSVFLFPPKPKDTLMISRTPEVTCVVVDVSHEDPEVKFNWYVDGVEVHNAKTKPREEQYNSTYRVVSVLTVLHQDWLNGKEYKCKVSNKALPAPIEKTISKAKGQPREPQVYTLPPSRDELTKNQVSLTCLVKGFYPSDIAVEWESNGQPENNYKTTPPVLDSDGSFFLYSKLTVDKSRWQQGNVFSCSVMHEALHNHYTQKSLSLSPGK | -1.9
9 | variant CD155 IgV-Fc V9I, Q12K, P18F, S65A, S67V, L79P, L104T, G111R, S112I (Fc fusion) WPPPGTGDIVVKAPTQVFGFLGDSVTLPCYLQVPNMEVTHVSQLTWARHGESGSMAVFHQTQGPAYVESKRLEFVAARPGAELRNASLRMFGLRVEDEGNYTCTFVTFPQRIRSVDIWLRVLGSGGGGSEPKSSDKTHTCPPCPAPEAEGAPSVFLFPPKPKDTLMISRTPEVTCVVVDVSHEDPEVKFNWYVDGVEVHNAKTKPREEQYNSTYRVVSVLTVLHQDWLNGKEYKCKVSNKALPAPIEKTISKAKGQPREPQVYTLPPSRDELTKNQVSLTCLVKGFYPSDIAVEWESNGQPENNYKTTPPVLDSDGSFFLYSKLTVDKSRWQQGNVFSCSVMHEALHNHYTQKSLSLSPGK | 2.3
10 | variant CD155 IgV-Fc P18T, M36T, S65A, S67E, L79Q, A81T, F91S, G111R (Fc fusion) WPPPGTGDVVVQAPTQVTGFLGDSVTLPCYLQVPNTEVTHVSQLTWARHGESGSMAVFHQTQGPAYEESKRLEFVAARQGTELRNASLRMSGLRVEDEGNYTCLFVTFPQRSRSVDIWLRVLGSGGGGSEPKSSDKTHTCPPCPAPEAEGAPSVFLFPPKPKDTLMISRTPEVTCVVVDVSHEDPEVKFNWYVDGVEVHNAKTKPREEQYNSTYRVVSVLTVLHQDWLNGKEYKCKVSNKALPAPIEKTISKAKGQPREPQVYTLPPSRDELTKNQVSLTCLVKGFYPSDIAVEWESNGQPENNYKTTPPVLDSDGSFFLYSKLTVDKSRWQQGNVFSCSVMHEALHNHYTQKSLSLSPGK | -0.9

From patent publication US20230381229A1 (ALPINE IMMUNE SCIENCES, INC., published 2023)
